Two molecules from patent US20180030144A1 (INNATE PHARMA, published 2018) can be followed below.

The target of test [1] is T1, human CD73 expressed at the cell surface (human, UniProt P21589 27-549).
T1 sequence: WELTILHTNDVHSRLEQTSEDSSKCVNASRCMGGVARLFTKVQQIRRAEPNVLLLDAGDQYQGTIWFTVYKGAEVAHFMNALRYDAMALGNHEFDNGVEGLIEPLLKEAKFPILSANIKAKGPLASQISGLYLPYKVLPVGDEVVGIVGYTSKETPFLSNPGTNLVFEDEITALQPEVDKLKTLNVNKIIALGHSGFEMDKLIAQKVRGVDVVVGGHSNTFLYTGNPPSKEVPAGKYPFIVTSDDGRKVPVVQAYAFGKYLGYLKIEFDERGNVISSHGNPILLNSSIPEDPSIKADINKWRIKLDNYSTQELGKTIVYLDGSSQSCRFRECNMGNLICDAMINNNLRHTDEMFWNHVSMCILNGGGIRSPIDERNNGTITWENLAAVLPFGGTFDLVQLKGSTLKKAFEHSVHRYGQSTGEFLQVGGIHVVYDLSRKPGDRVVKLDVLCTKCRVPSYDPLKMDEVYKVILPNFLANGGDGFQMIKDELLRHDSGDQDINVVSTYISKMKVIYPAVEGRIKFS
In words: cell-based or functional assay.

In test [2] the target is T2, recombinant human CD73-His extracellular domain protein (soluble dimer) (human, UniProt P21589 27-547).
T2 sequence: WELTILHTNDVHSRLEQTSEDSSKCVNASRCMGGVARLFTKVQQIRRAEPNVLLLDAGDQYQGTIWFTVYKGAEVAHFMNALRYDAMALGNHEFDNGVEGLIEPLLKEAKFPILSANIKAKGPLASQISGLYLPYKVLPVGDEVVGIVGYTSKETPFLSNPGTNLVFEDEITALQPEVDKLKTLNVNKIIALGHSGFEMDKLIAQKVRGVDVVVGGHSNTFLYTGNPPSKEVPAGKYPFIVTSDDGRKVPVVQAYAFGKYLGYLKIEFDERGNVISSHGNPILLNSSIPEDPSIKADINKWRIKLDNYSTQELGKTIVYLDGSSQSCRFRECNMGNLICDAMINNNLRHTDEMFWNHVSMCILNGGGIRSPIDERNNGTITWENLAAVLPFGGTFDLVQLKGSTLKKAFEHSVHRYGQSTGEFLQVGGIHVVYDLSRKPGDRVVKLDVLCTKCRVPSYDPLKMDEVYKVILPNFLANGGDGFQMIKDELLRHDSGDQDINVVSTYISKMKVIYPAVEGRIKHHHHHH
In words: cell-based or functional assay.

In test [3] the target is T1, human CD73 expressed at the cell surface. In words: cell-based or functional assay. The source holds these as a separate data set.
Test [4] shares this target. Put plainly: cell-based or functional assay. This is another data set of the same source.
Test [5] addresses T2, recombinant human CD73-His …. Put plainly: ELISA, plate-coated recombinant human CD73. The method, then:
5 μg/ml of recombinant human CD73 protein (IPH, isoform E6) was coated on MaxiSorp ELISA plates (Nunc) in PBS, overnight at 4° C. Plates were washed 5 times in washing buffer (PBS, 0.05% Tween20) and unspecific sites were saturated by adding 200 μl/w TBS starting block buffer (Thermo Ficher). Dose-range of anti-CD73 antibodies were incubated for 2 h at 37° C. Plates were washed 5 times in washing buffer and HRP-coupled goat anti-human or goat anti-mouse IgG Fc fragment secondary antibody (Bethyl, 1/50000) was added for 1 hr at RT to detect bound anti-CD73 antibodies. […] The enzymatic reaction was stopped by adding HCl 1M and O.D. was measured at 450 nm. Optical density vs. anti-CD73 Ab concentration was plotted on graphs and EC50 is calculated using GraphPad Prism software.
(In general: In an ELISA, binding on a coated surface is turned into a signal by an enzyme label.)

Test [6] addresses T1, human CD73 expressed at the cell surface. Put plainly: flow cytometry on MDA-MB-231 cells, medium (no APCP). The method, then:
(§1) MDA-MB-231 cells are available from ATCC (reference HTB-26). 10⁵ cells resuspended in PBS/0.2% BSA/0.02% NaN3 (named “staining buffer”) are distributed into round bottom 96W-microplates. Dose-range of anti-CD73 antibodies was added to the plates and cells are incubated for 45 min at 4° C. Cells were washed three times in staining buffer by spinning plates at 400 g for 3 min at 4° C. PE-coupled goat anti-mouse or goat anti-human IgG Fc fragment secondary antibodies (Beckman Coulter) diluted in staining buffer were added to the cells and plates are incubated for 30 additional minutes at 4° C. Cells were washed three times as described above and analyzed on an Accury C6 flow cytometer equipped with an HTFC plate reader.
(§2) Cells were pre-incubated at 37° C. for 30 minutes in the presence or not of 200 μM adenosine 5′-(α,β-methylene)diphosphate (APCP), followed by addition of antibodies. APCP is an analog of ADP and binds irreversibly to the active site of CD73. When bound by APCP, CD73 changes conformation from an “open” conformation to a “closed” conformation. mAbs 11E1, 8C7, 3C12 and 6E1 bound MDA-MB-231 cells with good affinity both in the presence and absence of APCP. In the presence of APCP, the EC50 was similar to that observed in the absence of APCP. The plateau for maximal binding of 11E1, 8C7, 3C12 and 6E1 was higher in the absence of APCP than in the presence of APCP, while the inverse was true for AD2.
(In flow cytometry, cells or beads pass a laser one at a time.)

For test [7] the target is unchanged. Put plainly: flow cytometry on MDA-MB-231 cells pre-incubated with 200 µM APCP. The method, then: as §1, §2
The target is the same in test [8]. In words: flow cytometry titration on MDA-MB-231 cells (endogenous CD73), median of fluorescence. The method, then: as §1
Median of fluorescence vs. antibodies concentration was plotted on graphs and EC50 is calculated using Graph Pad Prism program.

For test [9] the target is unchanged. In words: flow cytometry titration on a human-CD73-expressing recombinant host cell line, median of fluorescence.
For test [10], the target named is T3, mouse CD73 expressed on a recombinant host cell line (mouse, UniProt Q61503 29-551).
T3 construct: whole, on cells; also called moCD73
T3 sequence (looked up): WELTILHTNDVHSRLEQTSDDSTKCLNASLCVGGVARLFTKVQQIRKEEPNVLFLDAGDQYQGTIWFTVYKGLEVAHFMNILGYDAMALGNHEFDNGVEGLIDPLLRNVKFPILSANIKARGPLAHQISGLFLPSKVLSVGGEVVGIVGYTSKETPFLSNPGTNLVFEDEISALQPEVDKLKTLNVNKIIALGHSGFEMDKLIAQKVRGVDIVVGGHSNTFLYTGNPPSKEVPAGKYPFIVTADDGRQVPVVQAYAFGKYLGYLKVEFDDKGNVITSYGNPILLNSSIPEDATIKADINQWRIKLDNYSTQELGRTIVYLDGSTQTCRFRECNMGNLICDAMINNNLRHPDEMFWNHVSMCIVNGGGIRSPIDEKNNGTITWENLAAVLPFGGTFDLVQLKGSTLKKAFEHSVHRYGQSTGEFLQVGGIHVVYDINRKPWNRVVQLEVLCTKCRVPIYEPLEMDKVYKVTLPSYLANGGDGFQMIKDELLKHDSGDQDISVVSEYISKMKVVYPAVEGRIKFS
In words: flow cytometry titration on a mouse-CD73-expressing recombinant host cell line, median of fluorescence.

In test [11] the target is T4, cynomolgus CD73 expressed on a recombinant host cell line (cynomolgus).
T4 construct: whole, on cells; also called cynoCD73
In words: flow cytometry titration on a cynomolgus-CD73-expressing recombinant host cell line, median of fluorescence.

Test [12] deals with T5, human CD73 mutant 3 (human, UniProt P21589 27-549).
T5 construct: Transfected in HEK293T cells
T5 chain: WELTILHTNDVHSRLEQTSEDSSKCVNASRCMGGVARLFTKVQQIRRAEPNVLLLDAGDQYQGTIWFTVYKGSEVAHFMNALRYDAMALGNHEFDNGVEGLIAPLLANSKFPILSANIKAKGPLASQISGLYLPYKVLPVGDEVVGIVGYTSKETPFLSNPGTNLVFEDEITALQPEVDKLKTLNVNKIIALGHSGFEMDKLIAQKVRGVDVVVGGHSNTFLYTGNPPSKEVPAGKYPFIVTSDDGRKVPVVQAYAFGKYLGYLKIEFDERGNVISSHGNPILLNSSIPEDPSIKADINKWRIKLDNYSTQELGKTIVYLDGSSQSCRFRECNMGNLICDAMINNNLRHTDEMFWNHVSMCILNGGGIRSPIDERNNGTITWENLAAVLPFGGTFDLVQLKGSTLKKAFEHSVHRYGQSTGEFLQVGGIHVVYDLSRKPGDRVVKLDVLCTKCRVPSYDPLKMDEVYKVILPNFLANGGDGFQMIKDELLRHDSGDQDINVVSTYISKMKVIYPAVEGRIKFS
In words: flow cytometry titration on HEK293T cells transfected with human CD73 mutant 3, MFI PE.

Test [13] addresses T1, human CD73 expressed at the cell surface. In words: flow cytometry titration on HEK293T cells transfected with wild type human CD73, MFI PE.

B1: antibody 8C7 (antibody, human IgG1, V domains shown)
VH: EVQLQQSGPELVKPGASVKVSCKASGYAFASYNMNWVKQSHGKSLDWIGYIDPYNGGSSYNLTFKGKATLTVDKSSTTAYMHLNSLTSEDSAVYYCARGYGNYKAWFAYWGQGTLVTVSA
VL: SIVMTPTPKFLLVSAGDRVTITCKASQSVSNDVAWYQQKPGQSPKLLIYYASTRYTGVPDRFTGSGYGTDFTFTISTVQAEDLAVYFCQQDYSSLTFGAGTKLELKR
notes: Produced as chimeric human IgG1 with heavy chain N297Q (Kabat EU numbering); RTVAAP)
For orientation: EC50 means the concentration that produces a half-maximal response. As a reminder, the EC50 (read off the curve) is the concentration giving half of the maximal effect. For B1, in [1], the “decrease of the enzymatic activity of cellular CD73 (MDA-MB-231 cells)” value was over 75%. Besides, the “EC50 for CD73 blockade (enzymatic activity of soluble recombinant human CD73-his)” value in [2] is 1.29 µg/mL. The “EC50 for neutralization of the enzymatic activity of cellular CD73 (MDA-MB-231 cells, free phosphate from AMP)” value in [3] stood at 0.319 µg/mL. Further, the “EC50 for neutralization of 5'-ectonucleotidase activity, mean over MDA-MB-231, H292 and A375 cells” value in test [4] was 0.21 µg/mL. Further, in test [4], the “EC70 for neutralization of 5'-ectonucleotidase activity, mean over MDA-MB-231, H292 and A375 cells” value came out at 0.46 µg/mL. Besides, the “EC100 for neutralization of 5'-ectonucleotidase activity, mean over MDA-MB-231, H292 and A375 cells” value in test [4] worked out at 0.72 µg/mL. The EC50 in test [5] stood at 0.009 µg/mL; in test [6], 0.0903 µg/mL; in test [7], 0.143 µg/mL. Besides, the concentration giving a half-maximal response (EC50 (read off the curve)) in [8] was about 0.1 µg/mL; in [9] it was about 0.1 µg/mL; in test [11], about 0.4 µg/mL. Further, the binding result in test [10] is “no binding (tested: about 30 µg/ml)”.

B2: antibody AD2 (Biolegend, product ref. 344004) (antibody, V domains shown)
VH: EVQLQQSGAELVKPGASVKLSCTASGFNIKDTYIHWVKQRPEQGLEWIGRIDPATGNTEYDPKFQGKATITADTSSNTAYLHLSSLTSEDTAVYYCARGYYGSSYPPWFAYWGQGTLVTVS
VL: DIVMTQSHKFMSTSVGDRVSITCKASQDVGSAVAWYQQKPGQSPKLLIYWASTRHTGVPDRFTGSGSGTDFTLTISNVQSEDLADYFCQQYSSYPLTFGAGTKLELK
With B2, the EC50 in test [6] worked out at 0.0629 µg/mL; in test [7] it was 0.0959 µg/mL. Further, the half-maximal effective concentration (EC50 (read off the curve)) was about 0.1 µg/mL in test [12] and about 0.2 µg/mL in test [13].
